Patent US20200010818, “EVALUATION AND IMPROVEMENT OF NUCLEASE CLEAVAGE SPECIFICITY” (President and Fellows of Harvard College, published 2020)

B1: CCR5-224 9 (dsDNA)
DNA 1: GTCATCTTCATCAAAAGGAACTGCAAAAC
DNA 2: GTTTTGCAGTTCCTTTTGATGAAGATGAC
B2: CCR5-224 14 (dsDNA)
DNA 1: GTCCTGCTCAGCAAAAGAAACTGAAAAAG
DNA 2: CTTTTTCAGTTTCTTTTGCTGAGCAGGAC
B3: CCR5-224 25 WBSCR17 (dsDNA)
DNA 1: GTTATCCTCAGCAAACTAAAACTGGAACAG
DNA 2: CTGTTCCAGTTTTAGTTTGCTGAGGATAAC
B4: CCR5-224 16 (dsDNA)
DNA 1: GTCTTCCTGATGCTACCAAACTGGAAAAG
DNA 2: CTTTTCCAGTTTGGTAGCATCAGGAAGAC
B5: CCR5-224 21 (dsDNA)
DNA 1: GTCAACCTCAACACCTACAGACTGCAAAAG
DNA 2: CTTTTGCAGTCTGTAGGTGTTGAGGTTGAC
B6: CCR5-224 11 TACR3 (dsDNA)
DNA 1: GTCATCTTCATCAGCATAAACTGTAAAGT
DNA 2: ACTTTACAGTTTATGCTGATGAAGATGAC
B7: CCR5-224 15 KCNB2 (dsDNA)
DNA 1: ATGTTCCTCATCTCCCGAAACTGCAAATG
DNA 2: CATTTGCAGTTTCGGGAGATGAGGAACAT
B8: VF2468 28 (dsDNA)
DNA 1: AGCAGCTTCTCCTGGGAGTGAGGG
DNA 2: CCCTCACTCCCAGGAGAAGCTGCT
B9: VF2468 72 (dsDNA)
DNA 1: AGAAACGTCGTGGAGGAGTGAGGG
DNA 2: CCCTCACTCCTCCACGACGTTTCT
B10: VF2468 19 TTC4 (dsDNA)
DNA 1: AGCAGAGTCTCTGAGAGTGAGGC
DNA 2: GCCTCACTCTCAGAGACTCTGCT
B11: VF2468 29 (dsDNA)
DNA 1: AGCAGGGTCAGGGCTGAGTGAGGC
DNA 2: GCCTCACTCAGCCCTGACCCTGCT
B12: VF2468 24 (dsDNA)
DNA 1: AGCAGCGTATCACATGAGTGAGGG
DNA 2: CCCTCACTCATGTGATACGCTGCT
B13: VF2468 35 (dsDNA)
DNA 1: AGCAGTGTCCTAAGGGGGTGAGGA
DNA 2: TCCTCACCCCCTTAGGACACTGCT
B14: VF2468 73 (dsDNA)
DNA 1: AGCAAAGTCTGTACTGAGTGAGGG
DNA 2: CCCTCACTCAGTACAGACTTTGCT
B15: VF2468 18 (dsDNA)
DNA 1: AGCAGAGTCAGACTTGAGTGAGGT
DNA 2: ACCTCACTCAAGTCTGACTCTGCT
B16: VF2468 79 (dsDNA)
DNA 1: AGCACCGTGGCTTCGAGTGAGGC
DNA 2: GCCTCACTCGAAGCCACGGTGCT
B17: VF2468 15 (dsDNA)
DNA 1: AGCAACGTCATATTCAGTGAGGA
DNA 2: TCCTCACTGAATATGACGTTGCT
B18: VF2468 78 (dsDNA)
DNA 1: AGCAATGTCAAAAAGAGTGAGGC
DNA 2: GCCTCACTCTTTTTGACATTGCT
B19: VF2468 11 (dsDNA)
DNA 1: AGCAGCGTCTCCCTTGAGTGATGG
DNA 2: CCATCACTCAAGGGAGACGCTGCT
B20: VF2468 23 (dsDNA)
DNA 1: AGCAGCGACGCCTGGGAGTGAGGT
DNA 2: ACCTCACTCCCAGGCGTCGCTGCT
B21: VF2468 68 (dsDNA)
DNA 1: AGCACCGTCCCCCTCAGTGAGGC
DNA 2: GCCTCACTGAGGGGGACGGTGCT
B22: VF2468 69 MTX2 (dsDNA)
DNA 1: AGCAGCGGCGGCTGCAGTGAGGC
DNA 2: GCCTCACTGCAGCCGCCGCTGCT
B23: VF2468 62 (dsDNA)
DNA 1: TGCAGCGGCGTAGGGGAGTGAGGA
DNA 2: TCCTCACTCCCCTACGCCGCTGCA
B24: VF2468 38 (dsDNA)
DNA 1: AGCATCGTCTTCTGTGAGTGAGTA
DNA 2: TACTCACTCACAGAAGACGATGCT
B25: VF2468 66 GBF1 (dsDNA)
DNA 1: AGCAACGTCCATAGTGTGTGAGAA
DNA 2: TTCTCACACACTATGGACGTTGCT

target: CCR5-224 ZFN heterodimer (UniProt P14870; SEQ:1-353,SEQ:1-352); assay: cell_activity; K562; in vitro selected at 4 nM; conditions: tags: FokI obligate heterodimer; in vitro selection used in vitro-translated protein; chain copies: 2 (stated heterodimer)
Experimental: (§1) PCR for 37 potential CCR5-224 substrates and 97 potential VF2468 substrates was performed with Phusion DNA Polymerase (NEB) and primers “[ZFN] […] fwd” and “[ZFN] […] rev” (Table 9) in 1× Phusion HF Buffer supplemented with 3% DMSO. Primers were designed using Primer3³³. The amplified DNA was purified with the Qiagen PCR Purification Kit, eluted with 10 mM Tris-HCl, pH 8.5, and quantified by 1K Chip on a LabChip GX instrument (Caliper Life Sciences) and combined into separate equimolar pools for the catalytically active and empty vector control samples. PCR products were not obtained for 3 CCR5 sites and 7 VF2468 sites, which excluded these samples from further analysis. Multiplexed Illumina library preparation was performed according to the manufacturer's specifications, except that AMPure XP beads (Agencourt) were used for purification following adapter ligation and PCR enrichment steps. Illumina indices 11 (“GGCTAC”) and 12 (“CTTGTA”) were used for ZFN-treated libraries while indices 4 (“TGACCA”) and 6 (“GCCAAT”) were used for the empty vector controls. Library concentrations were quantified by KAPA Library Quantification Kit for Illumina Genome Analyzer Platform (Kapa Biosystems). Equal amounts of the barcoded libraries derived from active- and empty vector-treated cells were diluted to 10 nM and subjected to single read sequencing on an Illumina HiSeq 2000 at the Harvard University FAS Center for Systems Biology Core facility. Sequences were analyzed using Protocol 9 for active ZFN samples and empty vector controls.

CCR5-224 ZFN heterodimer, sequence (P14870 other isoform, or with tags, fused parts or gaps, chain 1 of 2): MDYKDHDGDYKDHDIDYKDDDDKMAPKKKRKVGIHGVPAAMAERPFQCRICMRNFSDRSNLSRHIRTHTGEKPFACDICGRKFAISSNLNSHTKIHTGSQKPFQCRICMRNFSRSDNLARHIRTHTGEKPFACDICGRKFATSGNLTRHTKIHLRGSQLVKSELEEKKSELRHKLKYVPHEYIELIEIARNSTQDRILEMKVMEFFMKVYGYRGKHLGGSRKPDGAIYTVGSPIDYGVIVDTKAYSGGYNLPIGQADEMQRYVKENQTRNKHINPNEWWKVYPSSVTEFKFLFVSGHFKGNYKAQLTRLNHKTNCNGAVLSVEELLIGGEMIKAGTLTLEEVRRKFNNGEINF
CCR5-224 ZFN heterodimer, sequence (P14870 other isoform, or with tags, fused parts or gaps, chain 2 of 2): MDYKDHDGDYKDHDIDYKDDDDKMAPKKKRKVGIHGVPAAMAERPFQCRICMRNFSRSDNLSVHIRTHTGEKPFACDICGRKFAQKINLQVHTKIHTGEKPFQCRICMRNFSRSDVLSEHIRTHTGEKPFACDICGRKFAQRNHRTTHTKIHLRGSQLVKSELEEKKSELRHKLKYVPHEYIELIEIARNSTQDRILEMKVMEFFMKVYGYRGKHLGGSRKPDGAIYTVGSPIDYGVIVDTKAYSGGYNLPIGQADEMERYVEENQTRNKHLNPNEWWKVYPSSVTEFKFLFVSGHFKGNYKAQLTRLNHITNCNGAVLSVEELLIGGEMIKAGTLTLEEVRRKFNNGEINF

Row | Binder | activity [% indels]
1 | B1 | 0.035
2 | B2 | 0.025
3 | B3 | 0.12
4 | B4 | 0.019
5 | B5 | 0.06
6 | B6 | 0.34
7 | B7 | 0.071

target: T1, VF2468 ZFN heterodimer (UniProt P14870;P14870 SEQ:1-324,SEQ:1-324); assay: cell_activity; K562; conditions: tags: FokI obligate heterodimer; in vitro selection used in vitro-translated protein; chain copies: 2 (stated heterodimer)
Experimental: as §1

T1 sequence (P14870 other isoform, or with tags, fused parts or gaps, chain 1 of 2): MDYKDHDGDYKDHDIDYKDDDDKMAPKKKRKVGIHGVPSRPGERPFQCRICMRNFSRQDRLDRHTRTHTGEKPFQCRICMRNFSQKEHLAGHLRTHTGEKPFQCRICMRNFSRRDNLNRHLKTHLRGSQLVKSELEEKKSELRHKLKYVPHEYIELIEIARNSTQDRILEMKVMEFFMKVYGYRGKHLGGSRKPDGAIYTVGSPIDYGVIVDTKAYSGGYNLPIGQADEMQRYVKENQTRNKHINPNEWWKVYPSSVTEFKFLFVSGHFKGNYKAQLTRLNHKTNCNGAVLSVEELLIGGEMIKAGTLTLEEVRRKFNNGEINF
T1 sequence (P14870 other isoform, or with tags, fused parts or gaps, chain 2 of 2): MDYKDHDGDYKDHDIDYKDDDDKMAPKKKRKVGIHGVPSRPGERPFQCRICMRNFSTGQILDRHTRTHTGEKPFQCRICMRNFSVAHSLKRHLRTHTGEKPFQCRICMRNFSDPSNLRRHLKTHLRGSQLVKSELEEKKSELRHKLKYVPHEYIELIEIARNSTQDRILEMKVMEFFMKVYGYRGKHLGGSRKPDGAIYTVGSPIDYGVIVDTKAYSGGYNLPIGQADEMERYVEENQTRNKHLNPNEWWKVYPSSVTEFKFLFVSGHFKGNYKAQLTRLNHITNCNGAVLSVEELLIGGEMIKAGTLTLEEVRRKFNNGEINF

Row | Binder | activity [% indels]
8 | B8 | 0.32
9 | B9 | 0.042
10 | B10 | 0.086
11 | B11 | 0.2
12 | B12 | 0.44
13 | B13 | 0.13
14 | B14 | 1.3
15 | B15 | 0.1
16 | B16 | 0.029
17 | B17 | 0.06
18 | B18 | 0.15
19 | B19 | 0.04
20 | B20 | 1.1
21 | B21 | 0.28

target: T1, VF2468 ZFN heterodimer; assay: cell_activity; K562; printed value; conditions: tags: FokI obligate heterodimer; in vitro selection used in vitro-translated protein; chain copies: 2 (stated heterodimer)
Experimental: as §1

Row | Binder | activity [% indels]
22 | B22 | 0.3
23 | B23 | 0.085
24 | B24 | 0.082
25 | B25 | 0.64
